Laboratory results published in the DeepSol protein solubility set.

Experiment: soluble on expression in E. coli; label from the status in PepcDB or PDB records

Sequence	soluble on expression in E. coli
MAHHHHHHMNLSDSNKDLNDSKSDKSTSWVKWFNSRAFSNFLVEVDNEYITDSFNLYGLKSEMPNFNHLLSIVAGDAPEEDDAKNAFGKDAVSLYSLIHARFITTPKGLSLMKDKYIKGDFGSCPRVSCSQHNVLPIGLFDQIKIAKVHVYCPLCQEIYKIHEEDKVYLDGSFFGTSFPHILLQTYPYYATLKTPSYCTSKIFGFSVYHNFTRTEYKIAKGEFGKLSRENFLKKNPKYLKKLKKEELQIKDT	not soluble
MSLSSYTVLAVDDSEINLKLIVHTLQPFGFQIFTAESAADARNVLLTNRVDVLLLDVSMPDQDGFSFCRELREIERFKLLPILFITGINREVGFDEAISHGGDDFIQKPFQPKELIAKIRAFIRIKILQDELLEQKKNYERELIMARKVQQELLPEKELEWNGVSLSTIFQPLMQIGGDYTDAWIEDDSLHIFIADCSGHGPSAALLAAMLKMQVSSLSPDQSLQEKVQTLRHNLEKILPDEFSITFFYGILHKDLSFEYSNGGHPAPMLYQNGEVSILPGMGPLIIPIEINVKEEFKSVQLQKDSYMLLYTDGATEISDKSMNILGEDKLKKIFQESVSIGGDILVSMMESILAHSDRGTNDDDIAMMVLKLEGHHHHHH	soluble
MGSDKIHHHHHHMEYVNIKLPYDKKQITAKIYKRNLAGILVSKSENYKNSLSEKELVEKSLDNPIASPKLEELVKGKKNIVLISSDHTRPVPSKIITPILLRRIRSVEPNANIIILVATGFHRPSTHEELVDKYGEEIVKRENIVMHVSTDDSAMVQIGTLPSGGPCIINKIAAEADLLIAEGFIESHFFAGFSGGRKSVLPGIASYKTIMANHCGEFINSNKARTGNIKCNPIHEDMVYAARTAGLKFILNVVLDGNKKIIGSFAGDVEKAHETGCDFVKDLARVKKVPCDIAVSTNGGYPLDQNIYQAVKGMTAAEATNKENGVIIMVAGCRDGHGGEGFYKNLANVKTPEEFLEKAIHTERQKTIPDQWTSQILARILSKHHVIMVSDLVDQKLICGMHMELVSNFEEALERAYKIEGKDAKVTVIPDGLSVIVE	not soluble
TPGKSDEAKDVFQVQDIPPVTAIGQSGLRLNLIGKNDRILNVNSPVLYENFMVGQVESAHFDPSDQSVHYTIFIQSPNDKLIHSASRFWLESGINIETTGSGIKLNSAPLPALLSGAISFDSPKTKNSKNVKSEDSFTLYDSRSEVANLPDDRSLYYTAFFKQSVRGLTVGSPVEYKGLNVGVVSDVPYFDRNDSLHLFENGWIPVRIRIEPSRLEINADEQSKEHWKQQFQTALNKGLTATISSNNLLTGSKMIELNDQPSASPKLRPHTVYAGDTVIATQGGGLDDLQVKLADLLDKFDKLPLDKTVAELNGSLAELKSTLKSANAALSSIDKLVGKPQTQNIPNELNQTLKELRTTLQGVSPQSPIYGDVQNTLQSLDKTLKDVQPVINTLKEKPNALIFNSSSKDPIPKGSR	not soluble
MGSDKIHHHHHHMRVGLTLYGSLDEQSGGFRYDRKLVEGLRAAGDTVECIQLPWRDYHRGLLDNGSRKLRQRLDVDVDVMLQDELAHPSLVRTNRALSYPIVSIVHHLRASEPRRLAPLYRAVERRYLGTVQAVVCNSATTRNVVTNLGVDPEDTVVAPPAGDQFDPDIDRATIERRATTEPLQVVFVGNVSPRKGLDTLVDGVAAAAVDIDLTVVGRHVDAAHVTSVQERVREHDLADRVQFAGRLPDGELAKTLRSSHVLAVPSRYEGFGIVYLEGMSFGLPALATRAGGAADIVTDDETGVLVDPDDSAAVARELERFATDRDRLAEMGWAARRNYETHPDWEETVGRVRDLLSDIVQPTEVPA	not soluble
MTDNSNIRVVVGMSGGVDSSVTALLLKEQGYDVIGVFMKNWDDTDEFGVCTATEDYKDVAAVADQIGIPYYSVNFEKEYWDRVFEYFLAEYRAGRTPNPDVMCNKEIKFKAFLDYAMTLGADYVATGHYAQVTRDENGIVHMLRGADNNKDQTYFLSQLSQEQLQKTLFPLGHLQKPEVRRIAEEAGLATAKKKDSTGICFIGEKNFKDFLGQYLPAQPGRMMTVDGRDMGEHAGLMYYTIGQRGGLGIGGQHGGDNKPWFVVGKDLSKNILYVGQGFYHDSLMSTSLTASEIHFTRDMPNEFKLECTAKFRYRQPDSKVTVYVKGNQARVVFDDLQRAITPGQAVVFYNEQECLGGGMIDQAYRDDKICQYIMAGDPLEHHHHHH	not soluble
MGYEGIIVVDVRDAEAYKECHIPTAISIPGNKINEDTTKRLSKEKVIITYCWGPACNGATKAAAKFAQLGFRVKELIGGIEYWRKENGEVEGTLGAKADLFWNMKKESLEHHHHHH	not soluble
VLLKEGARGSAPSAPPPLAVPAFFPLEPLTVNLQSDDGVQHYLRVGLSLKLTDPKAQEYLTQHMPELRSRILLALSNKHPEQLATLEGKRALADELKTLIEQPTQPGNQSARVDDVLFTEFVVQ	not soluble
MGSDKIHHHHHHMTVAQLLIPQMYSSKSTGEAVGRHPLNFYESPSWFTTELLRHVRLSGVVGEPCVGMGAIASLLSVWPYTKQMWTNDIDPHKSANYQMDATLSESWAKFPDCDWICTNPPYSEFAAPIIKNAYCKAHVGVAAFLLTSFLEPCDDRADFLQQHPPSLVLIMPRFCFRKDKRGTRWATDNVTISCFVWDKRATGQQIIVRPKSAIAGFYKNPEQAISQERAEKIVRAIAKGEL	not soluble
HHHHHHSSGLVPRGSHMTAQTVTGAVAAAQLGATLPHEHVIFGYPGYAGDVTLGPFDHAAALASCTETARALLARGIQTVVDATPNGCGRNPAFLREVSEATGLQILCATGFYYEGGGATTYFKFRASLGDAESEIYEMMRTEVTEGIAGTGIRAGVIKLASSRDAITPYEQLFFRAAARVQRETGVPIITHTQEGQQGPQQAELLTSLGADPARIMIGHMDGNTDPAYHRETLRHGVSIAFDRIGLQGMVGTPTDAERLSVLTTLLGEGYADRLLLSHDSIWHWLGRPPAIPEAALPAVKDWHPLHISDDILPDLRRRGITEEQVGQMTVGNPARLFG	soluble
MAGDPMANITLSTQHYRIHRSDVEPVKEKTTDKDVFAKSITAVRNSFISLSTSLSDRFSLHLQTDIPTTHFHRGSASEGRAVLTSKTVKDFMLQKLNSLDIKGNASKDPAYARQTCEAMLSAVYSNNKDHCCKLLISKGVSITPFLKEIGEAAQNAGLPGEIKNGVFTPGGAGANPFVVPLIAAASIKYPHMFINHNQQVSFKAYAEKIVMKEVTPLFNKGTMPTPQQFQLTIENIANKYLQNASLEHHHHHH	not soluble
MKKPSKCQSPGDSSISAKENDAQSNRSRDSKVAPKSEGLATGLDETEWKSRLTTPEIVLKEIRTLEGVSYYHGMVARDLVESKLTRCGDYLIRATDNRIMEFEFILSFFNKKRIHSHLTIKCDVEAGKWALGLLSVNQFSSVVDLTNFYKTNPIGAGFFLKRAISKGKYMIAHDRIKYSPKDDLLGTGNFSDVFRGKIELENQMVNVALKTTKLLDDTMDPTKNVKANKIKKEMIQEAEVMSQLRHANVTSFFGIAVDRLPILLIIEFCNGGNLQGHLIKFGDRIGTNERFLYLHDASAGLNYIHAMSITHRDIAARNCLISVNGFVKLSDFGMGLKVRRNESAKKVAEDDDGKENKEPKLPVRWMSPELVDTPDAFSKMSDMWSLGILAYEIFTNATKPFFNLDDTDVMQTVKSGKHPPLPLSMGPDLIRLLKDVLVAAPTQRTTADKFYNELHVLCTQKGALSLNGLTINQIRGISRKRVEHWEGYIPQVVICDKNGNERDWGDAPQEMLANVVWRGKK	not soluble
MSKSWGKFIEEEEAEMASRRNLMIVDGTNLGFRFKHNNSKKPFASSYVSTIQSLAKSYSARTTIVLGDKGKSVFRLEHLPEYAGNRDEKYAQRTEEEKALDEQFFEYLKDAFELCKTTFPTFTIRGVEADDMAAYIVKLIGHLYDHVWLISTDGDWDTLLTDKVSRFSFTTRREYHLRDMYEHHNVDDVEQFISLKAIMGDLGDNIRGVEGIGAKRGYNIIREFGNVLDIIDQLPLPGKQKYIQNLNASEELLFRNLILVDLPTYCVDAIAAVGQDVLDKFTKDILEIAEQ	soluble
MSLSSPQFEENSFECPVEIGISNMCGKRDSMQDTSVVITNFLGIGFHLLSLFDGHSGIYSSCFCASQFPNCFANILSKNPQQSIEDALIHSFKEMNQKINEYKFNDGTAANVVLITPQRYFIANVGDSRCILVKKDSIIILNEDHTINNPDEVQRIRKLNGFIDHSKVNGEIVLTRTLGDIQCSSVCSCIPQITCHERGIDDICIVLCCDGVFDVLSNELVGEICRKKSNESASVLSSLIRDIAYNNGCKDNISCIVCKLMSEGHHHHHH	soluble
MSSSPVKRQRMESALDQLKQFTTVVADTGDFHAIDEYKPQDATTNPSLILAAAQMPAYQELVEEAIAYGRKLGGSQEDQIKNAIDKLFVLFGAEILKKIPGRVSTEVDARLSFDKDAMVARARRLIELYKEAGISKDRILIKLSSTWEGIQAGKELEEQHGIHCNMTLLFSFAQAVACAEAGVTLISPFVGRILDWHVANTDKKSYEPLEDPGVKSVTKIYNYYKKFSYKTIVMGASFRNTGEIKALAGCDFLTISPKLLGELLQDNAKLVPVLSAKAAQASDLEKIHLDEKSFRWLHNEDQMAVEKLSDGIRKFAADAVKLERMLTERMFNAENGK	soluble
MAHHHHHHMEDKLDFTKLRDPFDMDEINRKLQEKVADDDPVQKAMPDPMDPKFRAPLRCSACGAVIEHAVRLLRPIIERQSERAARSGGVLPADALPKEYEMVDIFENLCGEVGRLYGLEVEKDKKRPTLRFSKSFGVSRLQGAWMPSFLTSTCEGVLDVEGEEKLAAMILGVARSEAEAGRGKVISMNPDQGIVDKVREMVCTKWEESAKGCDAYGVAIDPRETDNDDGAEEAASDL	not soluble
MDEQAVSTSMKTVYIRIYTSVLYTSYTKPGNWSAVDRSAWSVSCSNVYADDDAKYGAHLAIDGEINTTWFTWGVANAGECWWNTVLDRPVTLTGFSVTKQSAYGSGYNLRSAEIKVRKEGETEWVTYPRVLTFRNFKGADPQYAAIEPPIPNVKEFRINCLTPDNYTGFAEINLYVKQLEHHHHHH	soluble
MLQPPTLTPNANGEEFRGSVSTDRSSASPSNIDEIMEDDVNQKDEDEDLNLVDRVSKLETNFVFIQHQLSSIMNHLHAPQCKCTTCSKVNQPGAEEQKNDTSVLSQLFPNASDQQLKTLLDLSKMNKLPSQVVHKDQQNGSSFLPSANKTSENPKPIELKPLKLGQGYQMANGGGGGKIHTERLSEPARKQSRKVGFPPPVASYYQRKESSNPLVPPTPLSSIPNLITNSNAVSANTSTASPGPSSEGSGDDHLEAPNEVAHMHSSTVPATPTTPGANLFTQSMVDMLKLNAQNAAHSTGSPGFLRGRGRGRPKLIGDELDADLVDYMVSLKNSDPHGGHFTASQALHMARQYILERAPGLLEEHGGHVKLKLTWAMKLVSRIGERQREIELGLPAGTLSNMGRNLTNIPAGGNFMADMMAQNIFSQHMMMVNQQLEGGSPPASSSSTATTSTATKTVKQESKNGHQNEENLNVKQEASTMPEIINIKELNLPFLNNFLAELNDNNSGLIDGEIGAAGPSMAALFAPNA	not soluble
GAMGMNGIDDLLNINDRIKQVQNERNELASKLQNLKQSLASNDTGGGSGGGSDSSDLLQREAILANELNILDNLKTFLNLIKEVKTNLNILELENCYYSLQSLRKKMRNNAAYLKQSFNFQQSISTYVDTLHLELVSTLYKILTNGFWKITENSIQFTPTVEWGKDKVHIEYDTFMDFVAQQYFPKGSLDNQAWFILDMTSADSQEQVRAKLNTIMKEYMNLSRIVSMIKNSIFISGKEISYENEKNILVFSKSSSHGQHCVSTVLTSFEAVCDFMLDGLAFRDRKTLSYELGPLFNTEFTKFVKNNASIILESLDSPLKNLVSVINNKLTRLVAKSEVTNWTHSGKEIQDLLMN	soluble
